The nature of the data set: self-splicing fitness, log relative to wild type (ln ratio); higher = more splicing; Tetrahymena group I intron in knt gene, E. coli kanamycin selection, DiMSum; sequences stand for … in CUCUCU…GGAGGGAAAAGUUAUCAGGCAUGCACCUGGUAGCUAGUCUUUAAACCAAUAGAUUGCAUCGGUUUAAAAGGCAAGACCGUCAAAUUGCGGGAAAGGGGUCAACAGCCGUUCAGUACCAAGUCUCAGGGGAAACUUUGAGAUGGCCUUGCAAAGGGUAUGGUAAUAAGCUGACGGACAUGGUCCUAACCACGCAGCCAAGUCCUAAGUCAACAGAUCUUCUGUUGAUAUGGAUGCAGUUCACAGACUAAAUGUCGGUCGGGGAAGAUGUAUUCUUCUCAUAAGAUAUAGUCGGACCUCUCCUUAAUGGGAGCUAGCGGAUGAAGUGAUGCAACACUGGAGCCGCUGGGAACUAAUUUGUAUGCGAAAGUAUAUUGAUUAGUUUUGGAGUACUCGUGGUCG
In outline:
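Pooled colonies went to amplicon sequencing on an Illumina HiSeq 2500 after six replicate transformations. The plates were LB agar with 100 μg/mL carbenicillin, 50 μM IPTG and 0.2% rhamnose, with or without 25 μg/mL kanamycin, incubated overnight at 37°C or 30°C. The E. coli BL21(DE3) library had all eight P1ex-region intron nucleotides randomised, the intron placed in the knt kanamycin-resistance gene on pET-22b(+). DiMSum fitness is the error-weighted combination of replicate fold changes, kanamycin against none, normalised to wild type.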

± gives the uncertainty stated by the source.

For the sequence AUCAAGCAAUAUUACGUGAG, the “self-splicing fitness (ln)” value (30 °C) was -0.619 ± 0.046 and the “self-splicing fitness (ln)” value (37 °C) was found to be 0.349 ± 0.073. For UGAGAGCAAUAUUACGAAGA the same measures were -1.45 ± 0.29 and -2.35 ± 0.42. Turning to GCUGAGCAAUAUUACGGUUC, the “self-splicing fitness (ln)” value (30 °C) was -2.48 ± 0.14 and the “self-splicing fitness (ln)” value (37 °C) was -1.69 ± 0.15. Taken in the same sequence, the figures for AUCGAGCAAUAUUACGUUAG were -3.73 ± 0.29 and -0.583 ± 0.21. AAAUAGCAAUAUUACGGACC: the “self-splicing fitness (ln)” value by setting is: (30 °C) -1.57 ± 0.25; (37 °C) -1.26 ± 0.31.

As for CAAGAGCAAUAUUACGCUCA, the “self-splicing fitness (ln)” value runs as follows: (30 °C) -2.63 ± 0.17; (37 °C) -1.08 ± 0.2.

As for CGGCAGCAAUAUUACGAGCC, the “self-splicing fitness (ln)” value is -2.78 ± 0.24 (30 °C) and -1.37 ± 0.21 (37 °C). For the sequence UAUAAGCAAUAUUACGGGCG, the “self-splicing fitness (ln)” value reads like this: (30 °C) -0.413 ± 0.14; (37 °C) 0.339 ± 0.17. Consider AAUAAGCAAUAUUACGCUGC, for which the “self-splicing fitness (ln)” value runs as follows: (30 °C) -3.69 ± 0.3; (37 °C) -2.67 ± 0.38. Taken in the same sequence, the figures for CACUAGCAAUAUUACGUUGA were -3.56 ± 0.2 and -2.24 ± 0.16. For the sequence UGCGAGCAAUAUUACGGAAA, the “self-splicing fitness (ln)” value (30 °C) is -3.19 ± 0.33 and the “self-splicing fitness (ln)” value (37 °C) is -2.55 ± 0.3. Take GUACAGCAAUAUUACGCAGU: the “self-splicing fitness (ln)” value reads like this: (30 °C) -4.74 ± 0.31; (37 °C) -3 ± 0.24. For CCUCAGCAAUAUUACGGGAG, the “self-splicing fitness (ln)” value is, setting by setting: (30 °C) -3.4 ± 0.14; (37 °C) -2.42 ± 0.15. Taken in the same sequence, the figures for CCUUAGCAAUAUUACGUAAG were -1.28 ± 0.097 and -0.938 ± 0.12. Taken in the same sequence, the figures for AUCAAGCAAUAUUACGGACG were -0.832 ± 0.083 and 0.117 ± 0.11. Consider AAACAGCAAUAUUACGCUGC, for which the “self-splicing fitness (ln)” value runs as follows: (30 °C) -4.51 ± 0.19; (37 °C) -1.81 ± 0.13. For UACGAGCAAUAUUACGGCAU the same measures were -3.45 ± 0.23 and -1.25 ± 0.15. Consider AGAGAGCAAUAUUACGGAUC, for which the “self-splicing fitness (ln)” value (30 °C) is -3.76 ± 0.42. Regarding AAUUAGCAAUAUUACGUCUG, the “self-splicing fitness (ln)” value is -1.72 ± 0.15 (30 °C) and -0.251 ± 0.17 (37 °C).

Regarding GCGAAGCAAUAUUACGCUUC, the “self-splicing fitness (ln)” value by setting is: (30 °C) -4.53 ± 0.46; (37 °C) -2.58 ± 0.29. For the sequence AUAUAGCAAUAUUACGAACU, the “self-splicing fitness (ln)” value was -1.38 ± 0.22 (30 °C) and 0.111 ± 0.21 (37 °C). For GCUAAGCAAUAUUACGGAAC the same measures were -1.46 ± 0.093 and -0.743 ± 0.1.

Turning to CUAAAGCAAUAUUACGAUAC, the “self-splicing fitness (ln)” value (37 °C) is -2.32 ± 0.31.

Take UGUCAGCAAUAUUACGGUUA: the “self-splicing fitness (ln)” value reads like this: (30 °C) -0.384 ± 0.089; (37 °C) 0.239 ± 0.087. Taken in the same sequence, the figures for CAAAAGCAAUAUUACGUAUU were -4.13 ± 0.18 and -2.78 ± 0.15. For CGAUAGCAAUAUUACGAGUA the same measures were -2.16 ± 0.26 and -1.88 ± 0.19.

In the case of AUUAAGCAAUAUUACGAAUU, the “self-splicing fitness (ln)” value reads like this: (30 °C) -2.27 ± 0.16; (37 °C) -1.46 ± 0.21. In the case of GGAUAGCAAUAUUACGUCGG, the “self-splicing fitness (ln)” value runs as follows: (30 °C) -2.62 ± 0.23; (37 °C) -1.86 ± 0.27. In the case of UCAAAGCAAUAUUACGGGGA, the “self-splicing fitness (ln)” value is -0.69 ± 0.075 (30 °C) and -0.383 ± 0.085 (37 °C). For AAUUAGCAAUAUUACGCGUC the same measures were -2.69 ± 0.16 and -1.1 ± 0.14. Taken in the same sequence, the figures for CUGAAGCAAUAUUACGGAUU were -4.16 ± 0.17 and -3.01 ± 0.26. Take UAGAAGCAAUAUUACGGCCG: the “self-splicing fitness (ln)” value reads like this: (30 °C) 0.101 ± 0.083; (37 °C) -0.0885 ± 0.11. Taken in the same sequence, the figures for UAACAGCAAUAUUACGUUAA were -3.25 ± 0.2 and -1.6 ± 0.12. For GGACAGCAAUAUUACGUACC, the “self-splicing fitness (ln)” value (30 °C) is -1.81 ± 0.32.

As to AUUAAGCAAUAUUACGAGGC, the “self-splicing fitness (ln)” value (30 °C) was -3.18 ± 0.39 and the “self-splicing fitness (ln)” value (37 °C) is -1.99 ± 0.34.

Regarding GUCCAGCAAUAUUACGACUC, the “self-splicing fitness (ln)” value (30 °C) is -0.116 ± 0.087 and the “self-splicing fitness (ln)” value (37 °C) was -0.335 ± 0.1. Taken in the same sequence, the figures for UUGUAGCAAUAUUACGUCUC were -3.54 ± 0.17 and -1.75 ± 0.18. As to GCUCAGCAAUAUUACGGCGC, the “self-splicing fitness (ln)” value runs as follows: (30 °C) -1.44 ± 0.085; (37 °C) -0.248 ± 0.12. For UGCAAGCAAUAUUACGUUCC the same measures were -3.72 ± 0.33 and -1.43 ± 0.36. GACAAGCAAUAUUACGGGUU: the “self-splicing fitness (ln)” value runs as follows: (30 °C) -3.38 ± 0.14; (37 °C) -3.46 ± 0.17. With UCCUAGCAAUAUUACGAGAG, the “self-splicing fitness (ln)” value is -3.57 ± 0.17 (30 °C) and -2.51 ± 0.2 (37 °C). For UUAGAGCAAUAUUACGUGGU, the “self-splicing fitness (ln)” value by setting is: (30 °C) -3.98 ± 0.43; (37 °C) -2.61 ± 0.39. Taken in the same sequence, the figures for AGUCAGCAAUAUUACGAGAG were -2.88 ± 0.2 and -1.67 ± 0.18. In the case of GGUGAGCAAUAUUACGACGC, the “self-splicing fitness (ln)” value runs as follows: (30 °C) -0.546 ± 0.19; (37 °C) -0.0795 ± 0.28. With GGUCAGCAAUAUUACGCGCC, the “self-splicing fitness (ln)” value (30 °C) was 0.245 ± 0.39. On to AGUGAGCAAUAUUACGCUUU, for which the “self-splicing fitness (ln)” value by setting is: (30 °C) -4.07 ± 0.32; (37 °C) -3.04 ± 0.4.

GCGAAGCAAUAUUACGUGAC: the “self-splicing fitness (ln)” value was -1.51 ± 0.28 (30 °C) and -2.05 ± 0.29 (37 °C).

Take CGAGAGCAAUAUUACGCUAG: the “self-splicing fitness (ln)” value (37 °C) is -2.77 ± 0.4. As for UGCAAGCAAUAUUACGACAU, the “self-splicing fitness (ln)” value runs as follows: (30 °C) -1.679 ± 0.013; (37 °C) -0.674 ± 0.032.

With GAGCAGCAAUAUUACGAGAU, the “self-splicing fitness (ln)” value was -3.68 ± 0.18 (30 °C) and -2.64 ± 0.17 (37 °C).

Consider UUAUAGCAAUAUUACGGACA, for which the “self-splicing fitness (ln)” value is -1.66 ± 0.14 (30 °C) and -0.61 ± 0.12 (37 °C). For ACCGAGCAAUAUUACGAAGA the same measures were -3.11 ± 0.28 and -2.54 ± 0.29. As for UGGUAGCAAUAUUACGCCAU, the “self-splicing fitness (ln)” value (37 °C) is -1.09 ± 0.48. Same read-out and setting: the figure for GAGGAGCAAUAUUACGAGUA is -1.51 ± 0.37.

Consider GGAGAGCAAUAUUACGAAGA, for which the “self-splicing fitness (ln)” value (30 °C) is -3.05 ± 0.44 and the “self-splicing fitness (ln)” value (37 °C) is -1.59 ± 0.39. On to UAGAAGCAAUAUUACGGUAG, for which the “self-splicing fitness (ln)” value was -1.88 ± 0.13 (30 °C) and -0.213 ± 0.13 (37 °C). For the sequence ACAGAGCAAUAUUACGAUAU, the “self-splicing fitness (ln)” value (30 °C) was -3.55 ± 0.29 and the “self-splicing fitness (ln)” value (37 °C) is -2.62 ± 0.32. As for UCGCAGCAAUAUUACGUGCU, the “self-splicing fitness (ln)” value runs as follows: (30 °C) -3.64 ± 0.16; (37 °C) -2.15 ± 0.17. For CCUGAGCAAUAUUACGGGCU the same measures were -2.51 ± 0.16 and -2.3 ± 0.32. For AAAAAGCAAUAUUACGCGCA the same measures were -0.39 ± 0.082 and 0.127 ± 0.11. Taken in the same sequence, the figures for CUCGAGCAAUAUUACGUGCG were -3.08 ± 0.2 and -2.91 ± 0.17.

As for CGAGAGCAAUAUUACGACGC, the “self-splicing fitness (ln)” value (30 °C) was -1.91 ± 0.42.

As to GGUUAGCAAUAUUACGGCAA, the “self-splicing fitness (ln)” value reads like this: (30 °C) 0.963 ± 0.39; (37 °C) -0.363 ± 0.27.

As for AGUAAGCAAUAUUACGUUGU, the “self-splicing fitness (ln)” value reads like this: (30 °C) -3 ± 0.099; (37 °C) -1.97 ± 0.12. With UAUCAGCAAUAUUACGCCGU, the “self-splicing fitness (ln)” value by setting is: (30 °C) -1.43 ± 0.24; (37 °C) 0.487 ± 0.22.

Consider AGCCAGCAAUAUUACGUUGC, for which the “self-splicing fitness (ln)” value was -2.87 ± 0.18 (30 °C) and -3.28 ± 0.27 (37 °C). Regarding UUGUAGCAAUAUUACGACAC, the “self-splicing fitness (ln)” value is -1.44 ± 0.22 (30 °C) and -1.48 ± 0.32 (37 °C). Taken in the same sequence, the figures for CUUAAGCAAUAUUACGAGAA were -2.01 ± 0.34 and -2.91 ± 0.47. Regarding UCCUAGCAAUAUUACGGGAU, the “self-splicing fitness (ln)” value runs as follows: (30 °C) -4.1 ± 0.22; (37 °C) -2.18 ± 0.17. For GUACAGCAAUAUUACGUUAC the same measures were -3.89 ± 0.36 and -2.27 ± 0.28. With UUACAGCAAUAUUACGCCGU, for the setting “37 °C”, the “self-splicing fitness (ln)” value was -2.05 ± 0.31. Regarding CGAUAGCAAUAUUACGUUGC, the “self-splicing fitness (ln)” value reads like this: (30 °C) -4.22 ± 0.34; (37 °C) -3.8 ± 0.22. On to UUCGAGCAAUAUUACGAUUC, for which the “self-splicing fitness (ln)” value (30 °C) is -3.5 ± 0.44.

As to AACUAGCAAUAUUACGUCGU, the “self-splicing fitness (ln)” value by setting is: (30 °C) -1.8 ± 0.055; (37 °C) -1.03 ± 0.067. For CAGGAGCAAUAUUACGUAAG the same measures were -0.111 ± 0.097 and 0.23 ± 0.12. Taken in the same sequence, the figures for CGCAAGCAAUAUUACGGUUC were -4.01 ± 0.23 and -2.6 ± 0.16. For CGAGAGCAAUAUUACGACGU the same measures were -2.81 ± 0.22 and -3.04 ± 0.43. As to AAGCAGCAAUAUUACGUCUC, the “self-splicing fitness (ln)” value is -1.28 ± 0.065 (30 °C) and -0.717 ± 0.077 (37 °C).

The values above are taken from the supplement of paper PMC7877785.
